Results: patent US20080032921A1

Assays:
[1] = molecular target: purified HLA DRB1*0301 (human); experiment: competition with 125I-labelled peptide for purified HLA
[2] = molecular target: purified HLA DRB1*0701 (human); experiment: as above
[3] = molecular target: purified HLA DRB1*1302 (human); experiment: as above
[4] = molecular target: purified HLA DRB1*1501 (human); experiment: as above
[5] = molecular target: purified HLA DRB1*0404 (human); experiment: as above
[6] = molecular target: purified HLA DRB1*0405 (human); experiment: as above
[7] = molecular target: purified HLA DRB1*0101 (human); experiment: as above
[8] = molecular target: purified HLA DRB1*0401 (human); experiment: as above
[9] = molecular target: purified HLA DRB1*1101 (human); experiment: as above
HLA-DR DRB1*0401 (human) = experiment: competition with 125I-labelled reference peptide on purified HLA-DR
HLA-DR DRB1*0101 (human) = experiment: as above
HLA-DR DRB1*1501 (human) = experiment: as above
HLA-DR DRB1*1302 (human) = experiment: as above
HLA-DR DRB1*0701 (human) = experiment: as above
HLA-DR DRB1*0404 (human) = experiment: as above
HLA-DR DRB1*0301 (human) = experiment: as above
HLA-DR DRB1*0405 (human) = experiment: as above
HLA-DR DRB1*1101 (human) = experiment: as above
[10] = molecular target: purified HLA DRB1*0802 (human); experiment: competitive inhibition of 125I-labeled peptide binding to purified HLA
[11] = molecular target: purified HLA DRB1*0301 (human); experiment: as above
[12] = molecular target: purified HLA DRB1*0701 (human); experiment: as above
[13] = molecular target: purified HLA DRB1*1302 (human); experiment: as above
[14] = molecular target: purified HLA DRB1*1501 (human); experiment: as above
[15] = molecular target: purified HLA DRB1*0404 (human); experiment: as above
[16] = molecular target: purified HLA DRB1*0405 (human); experiment: as above
[17] = molecular target: purified HLA DRB5*0101 (human); experiment: as above
[18] = molecular target: purified HLA DRB1*0101 (human); experiment: as above
[19] = molecular target: purified HLA DRB4*0101 (human); experiment: as above
[20] = molecular target: purified HLA DRB1*0401 (human); experiment: as above
[21] = molecular target: purified HLA DRB1*1101 (human); experiment: as above
[22] = molecular target: purified HLA-DR DRB1*0404 (human); experiment: competition with 125I-labelled reference peptide, purified HLA
[23] = molecular target: purified HLA-DR DRB1*1501 (human); experiment: as above
[24] = molecular target: purified HLA-DR DRB1*0101 (human); experiment: as above
[25] = molecular target: purified HLA-DR DRB1*1101 (human); experiment: as above
[26] = molecular target: purified HLA-DR DRB4*0101 (human); experiment: as above
[27] = molecular target: purified HLA-DR DRB1*0405 (human); experiment: as above
[28] = molecular target: purified HLA-DR DRB1*0701 (human); experiment: as above
[29] = molecular target: purified HLA-DR DRB1*0802 (human); experiment: as above
[30] = molecular target: purified HLA-DR DRB1*0401 (human); experiment: as above
[31] = molecular target: purified HLA-DR DRB5*0101 (human); experiment: as above

**Q.** How did the IC50 [1] turn out when YIQMCTELKLSDYEG (modifications not checked) [Flu.NP.43 peptide …] was run?
**A.** 368 nM

**Q.** What about the IC50 [2] of the same binder?
**A.** 5370 nM

**Q.** What about the IC50 [3] of the same binder?
**A.** 15400 nM

**Q.** What about the IC50 [4] of the same binder?
**A.** 594 nM

**Q.** And the IC50 [5]?
**A.** 1640 nM

**Q.** And the IC50 [6]?
**A.** 2690 nM

**Q.** And the IC50 [7]?
**A.** 320 nM

**Q.** And the IC50 [8]?
**A.** 392 nM

**Q.** What about the IC50 [9] of the same binder?
**A.** 5840 nM

**Q.** And the IC50 (HLA-DR DRB1*0401 (human))?
**A.** 392 nM

**Q.** What about the IC50 (HLA-DR DRB1*0101 (human)) of the same binder?
**A.** 320 nM

**Q.** What about the IC50 (HLA-DR DRB1*1501 (human)) of the same binder?
**A.** 594 nM

**Q.** What about the IC50 (HLA-DR DRB1*1302 (human)) of the same binder?
**A.** 15400 nM

**Q.** And the IC50 (HLA-DR DRB1*0701 (human))?
**A.** 5370 nM

**Q.** And the IC50 (HLA-DR DRB1*0404 (human))?
**A.** 1640 nM

**Q.** And the IC50 (HLA-DR DRB1*0301 (human))?
**A.** 368 nM

**Q.** What about the IC50 (HLA-DR DRB1*0405 (human)) of the same binder?
**A.** 2690 nM

**Q.** What about the IC50 (HLA-DR DRB1*1101 (human)) of the same binder?
**A.** 5840 nM

**Q.** What does the source list for RREVHIYYLEKANKI (modifications not checked) [Flu.PA.127 peptide …]?
**A.** IC50 [10]: 95 nM; IC50 [11]: > 10000 nM; IC50 [12]: 23 nM; IC50 [13]: 150 nM; IC50 [14]: 4.5 nM; IC50 [15]: 181 nM; IC50 [16]: 1490 nM; IC50 [17]: 25 nM; IC50 [18]: 34 nM; IC50 [19]: 5 nM; IC50 [20]: 63 nM; IC50 [21]: 96 nM

**Q.** With ESAVLRGFLILGKED (modifications not checked) [Flu.PB2.690] as the binder, how does the IC50 [22] read?
**A.** 110 nM

**Q.** And the IC50 [23]?
**A.** 39 nM

**Q.** And the IC50 [24]?
**A.** 8.4 nM

**Q.** What about the IC50 [25] of the same binder?
**A.** 1030 nM

**Q.** What about the IC50 [26] of the same binder?
**A.** 1280 nM

**Q.** And the IC50 [27]?
**A.** 7100 nM

**Q.** What about the IC50 [28] of the same binder?
**A.** 2470 nM

**Q.** What about the IC50 [29] of the same binder?
**A.** 803 nM

**Q.** And the IC50 [30]?
**A.** 13200 nM

**Q.** What about the IC50 [31] of the same binder?
**A.** 303 nM
